Target: human DC-SIGN (human) (UniProt Q9NNX6)
Assay: cell-based or functional assay

Chain of UniProt Q9NNX6 (Q9NNX6 whole entry): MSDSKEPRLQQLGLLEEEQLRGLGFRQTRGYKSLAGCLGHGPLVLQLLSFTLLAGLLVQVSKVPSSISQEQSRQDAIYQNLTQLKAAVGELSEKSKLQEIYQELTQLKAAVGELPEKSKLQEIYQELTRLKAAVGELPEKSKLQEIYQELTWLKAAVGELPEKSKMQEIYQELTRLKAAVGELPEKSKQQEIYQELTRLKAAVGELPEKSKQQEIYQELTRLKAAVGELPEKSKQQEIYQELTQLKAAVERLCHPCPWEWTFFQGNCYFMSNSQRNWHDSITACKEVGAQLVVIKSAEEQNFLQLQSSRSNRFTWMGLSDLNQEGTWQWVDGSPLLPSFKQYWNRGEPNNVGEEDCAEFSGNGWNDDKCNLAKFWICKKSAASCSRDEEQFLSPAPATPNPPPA

Row | Substance | Internalisation (MFI) DC-SIGN transgenic CD11c+ cells, PBS wash; liposomes engrafted with gp120-6his 27.43 µg/mL, 37 C (unengrafted 74.3) | Internalisation (MFI) DC-SIGN transgenic CD11c+ cells, imidazole wash; liposomes engrafted with gp120-6his 27.43 µg/mL, 37 C (unengrafted 77.2) | Internalisation (MFI) DC-SIGN transgenic CD11c+ cells, PBS wash; liposomes engrafted with FliC-6his 23.04 µg/mL, 37 C (unengrafted 74.3) | Internalisation (MFI) DC-SIGN transgenic CD11c+ cells, imidazole wash; liposomes engrafted with FliC-6his 23.04 µg/mL, 37 C (unengrafted 77.2)
1 | histidine tagged gp120 (gp120-6his) | 118 | 126 |  | 
2 | histidine-tagged FliC (FliC-6his) (from UniProt P06179 2-495) (ligand) |  |  | 70.8 | 79.2

Source: patent publication US20180185464A1
